Laboratory results reported in paper PMC10001486, “Artificial Intelligence-Based Computational Screening and Functional Assays Identify Candidate Small Molecule Antagonists of PTPmu-Dependent Adhesion” (International Journal of Molecular Sciences, 2023).

Biological target: the molecule itself
Test: bead aggregation assay; streptavidin MonoMag beads (1 micron) coated with biotin-tagged PTPµ21-365avi; PBS + 0.01% Tween 20; room temperature; rotation at 150 rpm for 30 min; aggregates over 50 µm^2 counted by microscopy

B1: PTPµ21-365avi (fragment of PTPµ containing the MAM, Ig, and first FNIII repeat) (domain or fragment, human, UniProt P28827 21-365, looked up)
chain: ETFSGGCLFDEPYSTCGYSQSEGDDFNWEQVNTLTKPTSDPWMPSGSFMLVNASGRPEGQRAHLLLPQLKENDTHCIDFHYFVSSKSNSPPGLLNVYVKVNNGPLGNPIWNISGDPTRTWNRAELAISTFWPNFYQVIFEVITSGHQGYLAIDEVKVLGHPCTRTPHFLRIQNVEVNAGQFATFQCSAIGRTVAGDRLWLQGIDVRDAPLKEIKVTSSRRFIASFNVVNTTKRDAGKYRCMIRTEGGVGISNYAELVVKEPPVPIAPPQLASVGATYLWIQLNANSINGDGPIVAREVEYCTASGSWNDRQPVDSTSYKIGHLDPDTEYEISVLLTRPGEGGTGS
modifications: biotin (biotin-tagged)
notes: PTPµ, aa 21-365: MAM domain, Ig domain and first FNIII repeat; held on streptavidin beads by the biotin on the avi tag; the species is stated only for the full-length protein and by the UniProt entry; also called extracellular fragment of PTPmu; source: bacterially expressed
  binding result: binds
